In patent US20200385438A1 (Stanford University, published 2020) one finds Kd data, which are given here for six molecules.

Substitutions are numbered along the chain they refer to.

T1: biotinylated recombinant BH3-tagged mIL-2 (mouse, UniProt P04351 21-169, biotinylated with BirA enzyme (on the tag))
T1 construct: Secreted by Hi5 insect cells and immobilized on an SA sensor chip for SPR; also called biotinylated mouse IL-2; biotinylated IL-2; not shown: BH3 tag
T1 sequence (looked up): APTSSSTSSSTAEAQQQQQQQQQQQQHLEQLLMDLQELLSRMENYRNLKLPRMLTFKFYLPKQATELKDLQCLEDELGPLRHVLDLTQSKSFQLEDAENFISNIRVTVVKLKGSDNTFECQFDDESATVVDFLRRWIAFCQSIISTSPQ

B1: WT (receptor)
CD25 (IL-2Rα) chain: ELCLYDPPEVPNATFKALSYKNGTILNCECKRGFRRLKELVYMRCLGNSWSSNCQCTSNSHDKSRKQVTAQLEHQKEQQTTTDMQKPTQSMHQENLTGHCREPPPWKHEDSKRIYHFVEGQSVHYECIPGYKALQRGPAISICKMKCGKTGWTQPQLTCVDEREHHRFLASEESQGSRNSSPESETSCPITTTDFPQPTETTAMTETFVLTME
notes: also called WT mCD25; wild-type mouse CD25
B2: B4 (receptor)
CD25 (IL-2Rα) chain: B1 CD25 (IL-2Rα) chain with N27E, E29R, V41W, Y42I, M43V, N59T, I114E, H116T
notes: also called B4 mCD25
B3: WT (receptor)
CD25 (IL-2Rα) chain: ELCDDDPPEIPHATFKAMAYKEGTMLNCECKRGFRRIKSGSLYMLCTGNSSHSSWDNQCQCTSSATRNTTKQVTPQPEEQKERKTTEMQSPMQPVDQASLPGHCREPPPWENEATERIYHFVVGQMVYYQCVQGYRALHRGPAESVCKMTHGKTRWTQPQLICTGEMETSQFPGEEKPQASPEGRPESETSCLVTTTDFQIQTEMAATMETSIFTTE
notes: also called WT hCD25; wild-type human CD25
B4: E8 (receptor)
CD25 (IL-2Rα) chain: B3 CD25 (IL-2Rα) chain with L2Q, M25V, N27Y, L42A, I118R, H120W
notes: also called E8 hCD25
B5: F5 (receptor)
CD25 (IL-2Rα) chain: B3 CD25 (IL-2Rα) chain with M25L, N27V, L42A, I118N, H120M, K153G
notes: also called F5 hCD25
B6: B5 (receptor)
CD25 (IL-2Rα) chain: B3 CD25 (IL-2Rα) chain with M25I, N27V, E29D, L42A, I118R, H120W, K153Q
notes: also called B5 hCD25

The first experiment deals with T1, biotinylated recombinant BH3-tagged …. The experiment in a line: SPR (Biacore T100), biotinylated mIL-2 immobilised on an SA chip, soluble CD25 flowed over. The text has this:
(§1) FIG. 4A-4B—Sequences and affinities of high affinity CD25 variants. DNA encoding high affinity variants was extracted after clone screens by yeast plasmid minipreps. Sequences for hCD25 (FIG. 4A) and mCD25 (FIG. 4B) clones are aligned with wild-type (WT) CD25. Residues are the same as WT except as noted, and the EAV sequence is not aligned to WT mCD25 due to differences between species. Consensus mutations for hCD25 are highlighted in blue, and deletions are marked by dashes. Affinity measurements for each clone were determined by surface plasmon resonance.
(§2) Surface plasmon resonance (FIG. 4). Sequences of high-affinity CD25 identified from the clone screens were determined by yeast miniprep (Zymo Research), and cloned into pAcBN vectors for expression in Hi5 cells. Soluble high-affinity CD25 proteins were purified by FPLC. Affinity was measured by surface plasmon resonance (Biacore T100), with biotinylated mouse or human IL-2 immobilized on a SA sensor chip (GE Healthcare). CD25 variants were flowed over the chip and the chip was regenerated between runs.
For orientation: SPR reads the build-up and loss of mass on a sensor chip optically.
Turning to B1, the Kd (usually the constant that tells how readily two partners part at equilibrium) turned out to be 6.9 nM. Same read-out and setting: as for B2, the figure is 0.46 nM.

Another experiment deals with T2, biotinylated recombinant BH3-tagged hIL-2 (human, UniProt P60568 21-153, biotinylated with BirA enzyme (on the tag)).
T2 construct: Secreted by Hi5 insect cells and immobilized on an SA sensor chip for SPR; also called biotinylated human IL-2; biotinylated IL-2; not shown: BH3 tag
T2 sequence (P60568 21-153): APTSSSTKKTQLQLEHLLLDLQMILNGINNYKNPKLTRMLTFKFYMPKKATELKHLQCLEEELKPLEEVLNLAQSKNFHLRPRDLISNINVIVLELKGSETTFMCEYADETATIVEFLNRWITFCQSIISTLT
Kind of experiment: SPR (Biacore T100), biotinylated hIL-2 immobilised on an SA chip, soluble CD25 flowed over.
Excerpt: as §1, §2
In the case of B3, the Kd worked out at 2 nM. For the molecule B4, the Kd was 0.045 nM.

With B5, the Kd amounted to 0.086 nM. Regarding B6, the Kd was determined as 0.046 nM.
